According to PMC8934182:

Assays:
[1] = molecular target: SARS-CoV nucleocapsid (N) protein (SARS-CoV, UniProt P59595 1-422); assay: competition
SARS-CoV-2 spike S1 = SARS-CoV-2 spike S1 (SARS-CoV-2, UniProt P0DTC2 13-685); assay: 5.0 ng/mL in EIS
Interferon-gamma (IFN-γ) = Interferon-gamma (IFN-γ) (UniProt P01579 24-161); assay: competition

Measured: binding result

Interferon-gamma (IFN-γ), sequence (P01579 24-161): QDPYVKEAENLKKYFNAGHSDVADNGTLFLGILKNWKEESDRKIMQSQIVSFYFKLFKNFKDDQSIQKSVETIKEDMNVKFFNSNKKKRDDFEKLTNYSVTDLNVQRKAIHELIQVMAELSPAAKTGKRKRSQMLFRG
SARS-CoV nucleocapsid (N) protein, sequence (P59595 whole entry): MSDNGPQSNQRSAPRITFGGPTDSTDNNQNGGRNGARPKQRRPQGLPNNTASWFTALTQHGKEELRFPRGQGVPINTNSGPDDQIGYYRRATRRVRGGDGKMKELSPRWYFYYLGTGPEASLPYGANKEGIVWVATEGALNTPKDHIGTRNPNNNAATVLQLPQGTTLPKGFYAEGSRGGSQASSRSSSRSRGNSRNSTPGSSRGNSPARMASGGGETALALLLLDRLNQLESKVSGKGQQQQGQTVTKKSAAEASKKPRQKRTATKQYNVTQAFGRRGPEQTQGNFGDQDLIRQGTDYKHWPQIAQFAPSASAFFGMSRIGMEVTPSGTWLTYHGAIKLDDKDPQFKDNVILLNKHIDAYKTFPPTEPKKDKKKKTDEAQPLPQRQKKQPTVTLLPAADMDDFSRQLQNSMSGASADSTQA

B1: N48 aptamer (ssDNA)
DNA: GCTGGATGTCGCTTACGACAATATTCCTTAGGGGCACCGCTACATTGACACATCCAGC
no binding: all assays above
